Experimental data as given in patent publication US9428586B2, “Heparanase splice variant” (COMPUGEN LTD, priority 2010, dated 2016).

Tests used:
Concanavalin A = Concanavalin A (Canavalia ensiformis, UniProt P02866); conditions: lysates of over expressing 293 cells
Experimental: FIG. 7. […] A. Cell lysates. […] Control (Vo), heparanase and T5 transfected 293 cells were left untreated (−) or incubated with heparin (+, 50 μg/ml) for 20 h under serum-free conditions. […] B,C. Peptide analysis. Peptides corresponding to the heparin binding domain of heparanase (KKDC) or T5 (CKKK) which includes its unique three amino acids (SKK), and control scrambled (Scr) peptide were subjected to gel electrophoresis prior to or following incubation with heparin beads (+Heparin). C. Enzymatic activity.

Src [1] = test: Src phosphorylation (immunoblot, densitometry) in CAG myeloma cells; format: cell-based, human; conditions: infected CAG myeloma cells, serum-free
Experimental: (§1) FIG. 3. T5 augments Src phosphorylation. A. Over expression. CAG myeloma (left) and 293 (right) cells infected with heparanase (Hepa), T5, or control empty vector (Vo) were grown in the absence (−) or presence (+) of heparin (50 μg/ml) under serum-free conditions. Total cell lysates were subjected to immunoblotting applying anti-heparanase 1453 (upper and second panels), anti-phospho-Src (p-Src, third panels), anti-Src (fourth panels) anti-phospho-Erk (p-Erk, fifth panels), and anti-Erk2 (sixth panels) antibodies. Src phosphorylation index was calculated by densitometry analysis of phosphorylated Src levels divided by the total Src values. Data is presented as average fold increase ±SE of Src phosphorylation compared with control, Vo cells, set arbitrary to a value of 1 (lower panels) of five independent experiments. B. Gene silencing. Parental 293 cells were transfected with anti-heparanase, anti-T5, or control siRNAs. Total RNA was extracted and RT-PCR analysis was performed applying T5 (upper panel), heparanase (Hepa, second panel) and GAPDH (third panel) specific primers. Corresponding cell lysates were subjected to immunoblotting applying phospho-Src (p-Src, fourth panel), Src (fifth panel), phospho-Erk (p-Erk, sixth panel) and Erk2 (seventh panel) antibodies. Src phosphorylation index was calculated as above and is shown graphically in the lower panel. Note decreased Src phosphorylation levels upon T5 down regulation.
Preparation of cell lysates, protein blotting, and measurement of heparanase enzymatic activity were carried out as described previously (Zetser, A., et al., 2006, Cancer Res 66, 1455-1463; Fux, L., et al., 2009, Cancer Res 69, 1758-1767).

Src [2] = test: Src phosphorylation (immunoblot, densitometry) in 293 cells; format: cell-based, human; conditions: over expressing 293 cells, serum-free
Experimental: as §1, with “(-)” for “(−)”, “Data is presented as average fold increase ±SE of Src phosphorylation compared with control, Vo cells, set arbitrary to a value of 1 (lower panels) of five independent experiments.” left out, “regulation. […]” for “regulation.”

Erk = Erk phosphorylation (immunoblot) in CAG myeloma and 293 cells; format: cell-based, human
Experimental: as §1, with “Note decreased Src phosphorylation levels upon T5 down regulation.” left out

[3] = system: CAG myeloma, FaDu pharynx carcinoma and 293 cells; test: Colony formation in soft agar; format: cell-based, human; conditions: over expression in CAG myeloma, FaDu and 293 cells
Experimental: FIG. 4. T5 augments cell proliferation. A. BrdU incorporation. Morphology of control (Con), heparanase (Hepa)- and T5-infected CAG myeloma cell cultures is shown in the upper panels. […] Sub-confluent cultures of control (Vo), heparanase (Hepa)- and T5-infected CAG cells were grown in serum-free medium for 20 h followed by incubation with BrdU (1:1000) for 2 h. Cells were then fixed and immunostained with anti BrdU monoclonal antibody. Positively stained, red-brown nuclei were counted vs. blue, hematoxilin counter-stained nuclei. At least 1000 cells were counted for each cell type and the percentage of positively stained cells is noted in each panel. Fold increase in BrdU incorporation is shown graphically on the right panel. Gene silencing. 293 cells were transfected with anti-GFP (si-GFP), anti-heparanase (si-Hepa) or anti-T5 siRNA oligonucleotides and BrdU incorporation was evaluated as above except that cells were kept in serum-containing medium (lower panels). Note 2-fold decrease in BrdU incorporation following heparanase or T5 gene silencing (lower right panel). B. Colony formation in soft agar. […]
Three ml of DMEM containing 0.5% low melt agarose (Bio-Rad, Hercules, Calif.) and 10% fetal calf serum was poured into 60 mm petri dishes. […] Colonies were visualized and counted under a microscope after 2-5 weeks, as described.

B1: T5: novel splice variant of heparanase; truncated, enzymatically inactive 169 amino acid protein (protein, listed as Homo sapiens)
chain: MLLRSKPALPPPLMLLLLGPLGPLSPGALPRPAQAQDVVDLDFFTQEPLHLVSPSFLSVTIDANLATDPRFLILLGSPKLRTLARGLSPAYLRFGGTKTDFLIFDPKKESTFEERSYWQSQVNQDICKYGSIPPDVEEKLRLEWPYQEQLLLREHYQKKFKNSTYSSKK
For B1, the “interaction with the lectin Concanavalin A” value (Concanavalin A) was “retained”, the “Src phosphorylation increase vs control Vo cells” value (Src [1]) was “comparable induction of Src phosphorylation” and the “Src phosphorylation enhancement vs control Vo cells” value (Src [2]) was ~4 fold. The “Erk phosphorylation upon over expression” value (Erk) was “not affected” and the “colony number, size and cell density in soft agar” value [3] was “markedly increased”.
